Results published in patent US20220348648A1 (Memorial Sloan Kettering, published 2022).

T1: endogenous human DLL3 on NCI-H82 cells (human, UniProt Q9NYJ7 27-618)
T1 sequence (looked up): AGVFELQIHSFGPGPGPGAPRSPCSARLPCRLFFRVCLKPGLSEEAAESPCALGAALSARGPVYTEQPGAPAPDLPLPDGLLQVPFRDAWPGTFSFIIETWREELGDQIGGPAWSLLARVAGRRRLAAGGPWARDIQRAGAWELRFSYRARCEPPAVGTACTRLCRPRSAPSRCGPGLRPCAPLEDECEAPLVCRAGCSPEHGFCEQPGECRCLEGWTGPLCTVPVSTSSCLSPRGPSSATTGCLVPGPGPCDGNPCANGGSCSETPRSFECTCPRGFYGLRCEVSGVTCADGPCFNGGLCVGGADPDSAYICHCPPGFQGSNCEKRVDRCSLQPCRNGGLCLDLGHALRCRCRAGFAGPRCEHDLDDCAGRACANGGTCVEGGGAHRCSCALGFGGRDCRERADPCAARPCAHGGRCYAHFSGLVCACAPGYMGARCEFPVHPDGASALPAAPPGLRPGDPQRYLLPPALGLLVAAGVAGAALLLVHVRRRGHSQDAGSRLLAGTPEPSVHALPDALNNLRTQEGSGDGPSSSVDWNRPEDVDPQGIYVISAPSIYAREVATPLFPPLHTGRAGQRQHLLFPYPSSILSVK

T2: full-length cynomologus DLL3 on transfected HEK293 cells (cynomologus, UniProt A0A2K5WSR1 27-585)
T2 construct: also called 293 cyno DLL3
T2 sequence: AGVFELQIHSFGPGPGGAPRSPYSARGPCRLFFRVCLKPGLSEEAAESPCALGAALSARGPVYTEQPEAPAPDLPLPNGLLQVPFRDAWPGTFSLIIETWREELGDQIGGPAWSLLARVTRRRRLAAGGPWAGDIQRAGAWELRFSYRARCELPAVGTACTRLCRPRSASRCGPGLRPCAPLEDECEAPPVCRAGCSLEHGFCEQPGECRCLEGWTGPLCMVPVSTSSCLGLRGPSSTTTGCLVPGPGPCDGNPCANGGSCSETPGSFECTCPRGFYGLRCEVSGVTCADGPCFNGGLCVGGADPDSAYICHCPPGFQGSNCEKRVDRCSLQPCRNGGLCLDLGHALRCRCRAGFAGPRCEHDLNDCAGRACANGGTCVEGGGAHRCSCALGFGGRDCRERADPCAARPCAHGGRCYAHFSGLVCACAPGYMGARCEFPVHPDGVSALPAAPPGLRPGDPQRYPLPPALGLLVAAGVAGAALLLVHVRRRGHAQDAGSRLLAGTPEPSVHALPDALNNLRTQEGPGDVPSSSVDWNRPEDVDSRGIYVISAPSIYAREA

T3: full-length mouse DLL3 on transfected HEK293 cells (mouse, UniProt O88516 33-584)
T3 construct: also called 293 mDLL3
T3 sequence: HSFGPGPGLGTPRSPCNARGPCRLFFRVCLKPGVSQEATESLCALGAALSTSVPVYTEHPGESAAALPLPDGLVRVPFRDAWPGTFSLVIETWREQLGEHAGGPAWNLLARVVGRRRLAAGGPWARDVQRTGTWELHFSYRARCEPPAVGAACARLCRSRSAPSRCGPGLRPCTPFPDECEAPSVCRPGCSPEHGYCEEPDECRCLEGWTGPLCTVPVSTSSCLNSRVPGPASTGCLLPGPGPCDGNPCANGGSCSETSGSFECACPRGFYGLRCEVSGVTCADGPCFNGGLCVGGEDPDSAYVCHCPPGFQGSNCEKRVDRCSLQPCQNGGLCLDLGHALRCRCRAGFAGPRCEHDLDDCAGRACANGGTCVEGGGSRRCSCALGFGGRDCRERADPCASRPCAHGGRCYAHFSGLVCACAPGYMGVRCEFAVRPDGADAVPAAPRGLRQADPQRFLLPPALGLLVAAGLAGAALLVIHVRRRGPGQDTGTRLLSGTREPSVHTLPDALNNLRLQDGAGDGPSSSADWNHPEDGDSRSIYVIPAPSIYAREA

T4: full-length human DLL3 on transfected HEK293 cells (human, UniProt Q9NYJ7 27-618)
T4 construct: also called 293 hDLL3
T4 sequence: T1 sequence (looked up)

T5: DLL1 (UniProt O00548 18-545, limits assumed)
T5 sequence (looked up): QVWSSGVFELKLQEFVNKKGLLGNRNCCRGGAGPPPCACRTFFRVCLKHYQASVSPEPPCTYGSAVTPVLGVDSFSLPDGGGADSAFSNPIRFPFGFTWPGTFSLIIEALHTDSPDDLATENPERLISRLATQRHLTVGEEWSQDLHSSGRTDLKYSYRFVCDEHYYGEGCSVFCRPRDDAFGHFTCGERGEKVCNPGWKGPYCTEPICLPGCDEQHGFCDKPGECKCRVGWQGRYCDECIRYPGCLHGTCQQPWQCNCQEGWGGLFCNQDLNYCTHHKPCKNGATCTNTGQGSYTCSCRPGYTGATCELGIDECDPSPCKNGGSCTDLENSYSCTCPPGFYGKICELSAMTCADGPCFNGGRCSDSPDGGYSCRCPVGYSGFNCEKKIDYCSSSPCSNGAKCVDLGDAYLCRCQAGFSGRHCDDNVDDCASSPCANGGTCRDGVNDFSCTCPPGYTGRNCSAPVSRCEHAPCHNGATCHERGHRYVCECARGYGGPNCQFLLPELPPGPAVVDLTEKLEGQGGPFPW

B1: 6-G23-F (antibody, V domains shown)
VH: QVQLVQSGAEVKKPGASVKVSCKASGYTFTSYYIHWVRQAPGQGLEWMGIIDPSDGSTNYAQKFQGRVTMTRDTSTSTVYMELSSLRSEDTAVYYCARDREYNYYGLDVWGQGTTVTVSS
VL: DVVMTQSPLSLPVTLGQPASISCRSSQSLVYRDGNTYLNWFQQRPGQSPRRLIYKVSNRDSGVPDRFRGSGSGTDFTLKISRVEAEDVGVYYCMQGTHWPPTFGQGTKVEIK
notes: Purified hybridoma monoclonal from Ablexis AlivaMAb Kappa mice (human immunoglobulin repertoire); the antibody was captured on anti-mouse Fc sensors and detected with anti-mouse IgG / anti-mouse IgG1 reagents; also called 6-G23-F (10 µg/ml)
B2: 7-I1-B (antibody, V domains shown)
VH: EVQLVESGGGLVKPGGSLRLSCAASGFTFSNTWMSWVRQAPGKGLEWVGRIKSKSDGGTTDYAAPVKGRFTISRDDSKNTLYLQMNSLKTEDTAVYYCTQYYWNSFDYWGQGTLVTVSS
VL: not shown
notes: Purified hybridoma monoclonal from Ablexis AlivaMAb Kappa mice; the antibody was captured on anti-mouse Fc sensors and detected with anti-mouse IgG / anti-mouse IgG1 reagents; also called 7-I1-B (10 µg/ml)
B3: 2-C8-A (antibody, V domains shown)
VH: EVQLVESGGGLVQPGGSQRLSCAASGFTFSSYWMNWVRQAPGKGLEWVANIKEDGSEKYYVDSVKGRFTISRDNAKNSLYLQMNSLRAEDTAVYYCARDPGWAPFDYWGQGTLVTVSS
VL: DIQMSQSPSSLSASVGDRVTITCRASQGISNYLAWFQQKPGKAPKSLIYAASSLQSGVPSKFSGSGSGTDFTLAISSLQPEDFATYYCQQYNSFPYTFGQGTTLEIK
notes: Purified hybridoma monoclonal from Ablexis AlivaMAb Kappa mice; the antibody was captured on anti-mouse Fc sensors and detected with anti-mouse IgG / anti-mouse IgG1 reagents; also called 2-C8-A (10 µg/ml)
B4: 10-O18-A (antibody, V domains shown)
VH: QVQLQESGPGLVKPSETLSLTCTVSGGSINSYYWSWIRQPPGKGLEWIGYIFYSGITNYNPSLKSRVTISLDTSKNQFSLKLSSVTAADTAVYYCARIGVAGFYFDYWGQGTLVTVSS
VL: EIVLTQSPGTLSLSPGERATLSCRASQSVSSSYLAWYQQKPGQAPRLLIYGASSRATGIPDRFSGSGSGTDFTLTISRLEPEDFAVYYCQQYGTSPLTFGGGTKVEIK
notes: Purified hybridoma monoclonal from Ablexis AlivaMAb Kappa mice; the antibody was captured on anti-mouse Fc sensors and detected with anti-mouse IgG / anti-mouse IgG1 reagents; also called 10-018-A; 10-O18-A (10 µg/ml)

What follows are binders tested against T1, endogenous human DLL3 on NCI-H82 cells (assay: cell-based or functional assay).

Binder	MFI Ratio (4° C. / 37° C. staining, 4/37 internalization assay on NCI-H82 cells)
B1	1.67 ratio
B2	1.68 ratio
B3	1.76 ratio
B4	1.56 ratio

What follows are binders tested against T1, endogenous human DLL3 on NCI-H82 cells (assay: flow cytometry, 10 µg/ml antibody on NCI-H82 cells (endogenous DLL3)).
Procedure: (§1) The four monoclonal antibodies (6-G23-F, 2-C8-A, 7-I1-B and 10-O18-A) were tested for their ability to bind to mouse and cynomologus DLL3 as well as endogenous human DLL3 by flow cytometry. For this purpose, HEK293 cells were transfected with plasmid DNA encoding full-length human, mouse or cynomologus DLL3 and used in the experiment. Briefly 10⁶ transfected HEK293 cells or NCI-H82 primary cells were added in FACS buffer PBS 0.5% BSA to the wells of a 96 well U bottom plate and purified monoclonal added to 10 μg/ml. After 30 minutes incubation at 4° C. the cells were washed 3 times in FACS buffer and incubated with a PE labelled F(ab)2 anti-mouse IgG H and L 2nd stage. After another 30 minutes incubation at 4° C. the cells were washed three times in FACS buffer and analyzed on the flow cytometer. Data are presented at the ratio of the Mean Fluorescent Intensity for the monoclonal divided by the background staining with the 2nd stage. As shown in the Table below, all of the monoclonal antibodies cross reacted with cynomologus DLL3 and detected endogenous DLL3 on NCI H82 cells but only 6-G23-F and 7-I1-B bound to mouse DLL3.

Binder	ratio of the Mean Fluorescent Intensity for the monoclonal divided by the background staining with the 2nd stage
B1	11.1 ratio
B2	19.2 ratio
B3	11.9 ratio
B4	9.4 ratio

Each binder was assayed against T2, full-length cynomologus DLL3 on … (assay: flow cytometry, 10 µg/ml antibody on HEK293 cells transfected with full-length cynomologus DLL3).
Procedure: as §1

Binder	ratio of the Mean Fluorescent Intensity for the monoclonal divided by the background staining with the 2nd stage
B1	13.1 ratio
B2	18.7 ratio
B3	15 ratio
B4	9.85 ratio

These binders were tested against T3, full-length mouse DLL3 on transfected … (assay: flow cytometry, 10 µg/ml antibody on HEK293 cells transfected with full-length mouse DLL3).
Procedure: as §1

Binder	ratio of the Mean Fluorescent Intensity for the monoclonal divided by the background staining with the 2nd stage
B1	3.97 ratio
B2	4.7 ratio
B3	1.5 ratio
B4	0.99 ratio

Target: T1, endogenous human DLL3 on NCI-H82 cells
Assay: cell-based or functional assay
Remark: another data set of the same source

Binder	Dy light Dy658 Fluorescence (% of the Control Reference Monoclonal Antibody), quenching internalization assay on NCI-H82 cells
B1	76.5 % of the Control Reference Monoclonal Antibody
B2	70.1 % of the Control Reference Monoclonal Antibody
B3	62.9 % of the Control Reference Monoclonal Antibody

Target: T1, endogenous human DLL3 on NCI-H82 cells
Assay: cell-based or functional assay
Remark: another data set of the same source

Binder	FAB ZAP % SC16 Max Killing (saporin Fab ZAP cytotoxicity on NCI-H82 cells)
B1	94 % SC16 Max Killing
B2	97 % SC16 Max Killing
B3	89 % SC16 Max Killing

These binders were tested against T4, full-length human DLL3 on transfected … (assay: flow cytometry, 10 µg/ml antibody on HEK293 cells transfected with full-length human DLL3).
Procedure: as §1

Binder	ratio of the Mean Fluorescent Intensity for the monoclonal divided by the background staining with the 2nd stage
B1	6.33 ratio
B2	9.74 ratio
B3	7.71 ratio
B4	4.74 ratio

The binders below were run against DLL4 (UniProt Q9NR61 27-524, limits assumed) (assay: FIG. 7; assay not described).
Sequence of DLL4 (Q9NR61 27-524 limits assumed): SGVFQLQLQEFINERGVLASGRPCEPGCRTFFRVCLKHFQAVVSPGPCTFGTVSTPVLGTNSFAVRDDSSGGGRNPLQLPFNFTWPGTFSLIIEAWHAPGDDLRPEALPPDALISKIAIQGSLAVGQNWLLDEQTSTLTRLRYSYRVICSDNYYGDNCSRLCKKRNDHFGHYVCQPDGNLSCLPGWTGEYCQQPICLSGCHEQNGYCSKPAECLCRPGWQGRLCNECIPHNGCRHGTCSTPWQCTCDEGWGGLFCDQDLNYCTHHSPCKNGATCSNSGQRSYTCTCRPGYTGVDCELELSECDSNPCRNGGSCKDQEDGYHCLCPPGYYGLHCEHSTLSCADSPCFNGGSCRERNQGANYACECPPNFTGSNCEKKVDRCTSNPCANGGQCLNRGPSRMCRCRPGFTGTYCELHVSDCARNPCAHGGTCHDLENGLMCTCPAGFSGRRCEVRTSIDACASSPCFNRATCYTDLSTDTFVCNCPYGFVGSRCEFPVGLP

Binder	binding result
B1	no binding
B3	no binding
B4	no binding

Each binder was assayed against T5, DLL1 (assay: FIG. 7; assay not described).

Binder	binding result
B1	no binding
B2	no binding
B3	no binding
B4	no binding
